Measured values: article PMC11374677 (Nature, 2024)

Target: SARS-CoV-2 non-structural protein 3 (nsp3), TwinStrep-EGFP tagged, wild type (SARS-CoV-2 (Wuhan-Hu-1), UniProt P0DTD1)
Assay: […]

B1: SARS-CoV-2 non-structural protein 4 (nsp4), wild type (natural protein)
chain: KIVNNWLKQLIKVTLVFLFVAAIFYLITPVHVMSKHTDFSSEIIGYKAIDGGVTRDIASTDTCFANKHADFDTWFSQRGGSYTNDKACPLIAAVITREVGFVVPGLPGTILRTTNGDFLHFLPRVFSAVGNICYTPSKLIEYTDFATSACVLAAECTIFKDASGKPVPYCYDTNVLEGSVAYESLRPDTRYVLMDGSIIQFPNTYLEGSVRVVTTFDSEYCRHGTCERSEAGVCVSTSGRWVLNNDYYRSLPGVFCGVDAVNLLTNMFTPLIQPIGALDISASIVAGGIVAIVVTCLAYYFMRFRRAFGEYSHVVAFNTLLFLMSFTVLCLTPVYSFLPGVYSVIYLYLTFYLTNDVSFLAHIQWMVMFTPLVPFWITIAYIICISTKHFYWFFSNYLKRRVVFNGVSFSTFEEAALCTFLLNKEMYLKLRSDVLLPLTQYNRYLALYNKYKYFSGAMDTTSYREAACCHLAKALNDFSNSGSDVLYQPPQTSITSAVLQ
**Q.** How did the “stoichiometry N” value turn out when B1 was run?
**A.** The value was 1 ratio nsp4:nsp3 (12:12 in the complex).
